Measured values taken from patent publication US20040213795A1.

Molecular target: Murine PD-1 fusion protein (mouse) (UniProt Q02242)
Assay: SPR (BIAcore 3000), murine PD-1 fusion immobilized on CM5 chip, antibody 25 nM to 500 nM in flow

Chain of Murine PD-1 fusion protein (mouse) (Q02242 25-167): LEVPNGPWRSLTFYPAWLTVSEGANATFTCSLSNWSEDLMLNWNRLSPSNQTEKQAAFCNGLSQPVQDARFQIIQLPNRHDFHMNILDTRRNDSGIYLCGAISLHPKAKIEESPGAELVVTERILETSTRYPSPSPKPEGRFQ

B1: Anti-mouse PD1 antibody J43 (antibody, from another filing, V domains shown)
VH: EVRLLESGGGLVKPEGSLKLSCVASGFTFSDYFMSWVRQAPGKGLEWVAHIYTKSYNYATYYSGSVKGRFTISRDDSRSMVYLQMNNLRTEDTATYYCTRDGSGYPSLDFWGQGTQVTVSS
VL: YELTQPPSASVNVGETVKITCSGDQLPKYFADWFHQRSDQTILQVIYDDNKRPSGIPERISGSSSGTTATLTIRDVRAEDEGDYYCFSGYVDSDSKLYVFGSGTQLTVLG
B1 was tested, and the Ka was 2.6e+06 M⁻¹ and the Kd was 380 nM.
